For orientation: Kd means the equilibrium constant for the complex coming apart. For orientation: EC50 (read off the curve) means the concentration that produces a half-maximal response. A word on the koff: it is the rate constant with which the complex falls apart. Usually kon stands for the rate constant with which the complex forms.

Assay [1] deals with T1, ICOS (Homo sapiens (Human), UniProt Q9Y6W8 21-140).
T1 construct: also called CD28 family member ICOS
T1 sequence: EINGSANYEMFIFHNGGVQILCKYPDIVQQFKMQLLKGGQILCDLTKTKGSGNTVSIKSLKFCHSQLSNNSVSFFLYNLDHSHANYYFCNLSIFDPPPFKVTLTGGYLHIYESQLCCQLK
Put plainly: ELISA on coated ICOS, HRP anti-human kappa. The procedure:
(§1) The specificity of anti-PD-1 antibodies was examined by detecting their binding to CD28 family members ICOS, CTLA-4 and CD28 (R&D System) using standard ELISA. […] Finally, TMB was added as a substrate for HRP, and the absorbance was measured at 450 nm.
For orientation: In an ELISA, binding on a coated surface is turned into a signal by an enzyme label.

The target of assay [2] is T2, mouse PD-1-Fc (mouse, UniProt Q02242 25-169).
T2 construct: extracellular domain; not shown: Fc part
T2 sequence (looked up): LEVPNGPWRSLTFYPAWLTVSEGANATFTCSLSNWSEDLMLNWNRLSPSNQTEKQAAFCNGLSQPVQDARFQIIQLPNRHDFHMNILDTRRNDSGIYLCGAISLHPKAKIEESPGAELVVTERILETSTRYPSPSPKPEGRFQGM
Kind of assay: ELISA on coated mouse PD-1-Fc, HRP anti-human kappa. As to the method:
(§2) Finally, TMB was added as a substrate for HRP, and the absorbance was measured at 450 nm.

For assay [3], the target named is T3, CD28 (Homo sapiens (Human), UniProt P10747 19-152).
T3 construct: also called CD28 family member CD28
Kind of assay: ELISA on coated CD28, HRP anti-human kappa. As to the method: as §1

Assay [4] concerns the target T4, PD-1-Fc fusion protein (extracellular region of human PD-1 fused to human Fc) (human).
T4 construct: unlabelled when coated on plates or immobilized; also called human PD-1-Fc; PD-1-Fc-biotin
Put plainly: solution-equilibrium ELISA (Holash method): antibody preincubated with PD-1-Fc, free antibody captured on coated PD-1-Fc. The procedure: as §2

The target of assay [5] is T5, Cynomolgus monkey PD-1-Fc (Cynomolgus monkey, UniProt B0LAJ3 25-170).
T5 construct: not shown: The Fc part and any linker
Put plainly: ELISA on coated Cynomolgus monkey PD-1-Fc, HRP anti-human kappa. The procedure:
as §2

Assay [6] concerns the target T6, full-length human PD-1 expressed on transfected CHO-K1 cells (CHO/PD-1) (human, UniProt Q15116 25-288).
T6 construct: also called PD-1-transfected CHO cells; cell surface PD-1
Kind of assay: flow cytometry blocking assay, 10 ug/ml antibody with biotin-PD-L1-Fc (blocked ligand) on CHO/PD-1 cells, Avidin-PE. The procedure:
Then the mixture was added to the CHO/PD-1 cells. After 1 hour, the cells were washed and binding of was detected with Avidin-PE. Flow cytometric analysis was performed using a FACScan flow cytometry (Becton Dickinson).
A general note: Flow cytometry measures light scatter and fluorescence of single cells or particles in a stream.

Assay [7] addresses T7, CTLA-4 (Homo sapiens (Human), UniProt P16410 36-161).
T7 construct: also called CD28 family member CTLA-4
T7 sequence: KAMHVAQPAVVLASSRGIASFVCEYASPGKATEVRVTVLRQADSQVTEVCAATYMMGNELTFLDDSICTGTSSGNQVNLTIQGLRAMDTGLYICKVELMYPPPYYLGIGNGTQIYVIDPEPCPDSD
Put plainly: ELISA on coated CTLA-4, HRP anti-human kappa. The procedure: as §1

Assay [8] addresses T4, PD-1-Fc fusion protein (extracellular …). Put plainly: ELISA on coated PD-1-Fc, HRP anti-human kappa.
For assay [9] the target is unchanged. Kind of assay: ELISA on coated human PD-1-Fc, HRP anti-human kappa. As to the method: as §2
For assay [10], the target named is T3, CD28. Put plainly: ELISA on coated CD28, HRP anti-mouse kappa. As to the method: as §1
Assay [11] concerns the target T4, PD-1-Fc fusion protein (extracellular …). Put plainly: ELISA on coated PD-1-Fc, HRP anti-mouse kappa.
Assay [12] addresses T7, CTLA-4. Kind of assay: ELISA on coated CTLA-4, HRP anti-mouse kappa. The procedure:
as §1

Assay [13] deals with T1, ICOS. Put plainly: ELISA on coated ICOS, HRP anti-mouse kappa. The procedure:
as §1

In assay [14] the target is T5, Cynomolgus monkey PD-1-Fc. Put plainly: ELISA on coated Cynomolgus monkey PD-1-Fc, HRP anti-mouse kappa. The procedure:
as §2

Assay [15] deals with T4, PD-1-Fc fusion protein (extracellular …). Put plainly: ELISA on coated human PD-1-Fc, HRP anti-mouse kappa. As to the method:
as §2

Assay [16] concerns the target T2, mouse PD-1-Fc. Put plainly: ELISA on coated mouse PD-1-Fc, HRP anti-mouse kappa. As to the method: as §2
Assay [17] has as its target T6, full-length human PD-1 expressed on …. Kind of assay: flow cytometry on CHO/PD-1 cells, FITC anti-human antibody. The procedure: After 1 hour incubation, the cells were washed and an FITC labelled anti human antibody was incubated for 1 hour. Then the cells were washed and the flow cytometric analysis was performed using a FACScan flow cytometry.
Assay [18] has as its target T4, PD-1-Fc fusion protein (extracellular …). Put plainly: competition ELISA on coated PD-1-Fc, competitor biotin labelled Nivolumab, HRP-avidin.
The target is the same in assay [19]. Kind of assay: SPR (Biacore), ligand PD1-Fc-biotin, sample hu67D9, 25 C, fit 1:1 Binding. The procedure: (§3) Affinity constants were calculated from the ratio of the rate constants.
The target is the same in assay [20]. Kind of assay: SPR (Biacore), PD-1-Fc immobilized, antibody as analyte. The procedure: as §3
Assay [21] addresses T6, full-length human PD-1 expressed on …. Put plainly: flow cytometry competition on CHO/PD-1 cells, competitor FITC labelled Nivolumab at a sub-saturating concentration.
Assay [22] addresses T4, PD-1-Fc fusion protein (extracellular …). Kind of assay: ELISA on coated PD-1-Fc, HRP anti-human kappa. The source holds these as a separate data set.
Assay [23] shares this target. Put plainly: competition ELISA on coated PD-1-Fc, blocked ligand biotin labelled PDL1-Fc, HRP-avidin.

B1: 67D9 chimeric antibody (c67D9) (antibody, human IgG4 S228P, kappa, V domains shown)
VH: EVILVESGGGLVKPGGSLKVSCAASGFTFSTYGMSWVRQTPEKRLEWVATISGGGRDTYYPDTVKGRFTISRDNAKNTLYLQMSSLRSEDTALYYCARQDYGNYVWFAYWGQGTLVTVSA
VL: not shown
notes: Human kappa light chain (detected with anti-human kappa); also called chimeric Ab
Take B1: the binding result is listed as “no binding (tested: 1000 ng/ml)” with ICOS [1]; “no binding (tested: 1000 ng/ml)” with mouse PD-1-Fc [2]; “no binding (tested: 1000 ng/ml)” with CD28 [3]; “binds” in assay [6]; “no binding (tested: 1000 ng/ml)” in the assay with CTLA-4 [7]. This molecule also returned a Kd in assay [4] of 0.0169 nM. The “EC50 (read off the curve)” value in assay [5], in assay [8] and in [9] was around 10 ng/mL throughout.

B2: 67D9 (mouse anti-PD-1 monoclonal antibody) (antibody, mouse IgG2a, V domains shown)
VH: B1 VH
VL: not shown
notes: Purified from hybridoma supernatant by Protein G; also called mouse Ab
Turning to B2, the binding result is “no binding (tested: 1000 ng/ml)” with CD28 [10]; “no binding (tested: 1000 ng/ml)” with CTLA-4 [12]; “no binding (tested: 1000 ng/ml)” with ICOS [13]; “binds” in assay [6]; “no binding (tested: 1000 ng/ml)” with mouse PD-1-Fc [16]. Further, the “EC50 (read off the curve)” value in [11], in [14] and in assay [15] was around 10 ng/mL throughout. This molecule also had a Kd in assay [4] of 0.0124 nM.

B3: anti-PD-1 humanized antibody hu67D9 (antibody, human IgG4 S228P, kappa, V domains shown)
VH: EVQLVESGGGLVQPGGSLRLSCAASGFTFSTYGMSWVRQAPGKGLEWVATISGGGRDTYYPDTVKGRFTISRDNSKNTLYLQMSSLRAEDTAVYYCARQDYGNYVWFAYWGQGTLVTVSS
VL: DIVLTQSPASLAVSPGQRATISCRASESVDSYGISFMHWFQQKPGQPPQLLIYSTSNRGSGVPARFSGSGSGTDFSLTINPVEADDTANYFCQQSQEVPWTFGQGTKVEIKR
notes: also called humanized 67D9; humanized Ab
Regarding B3, the “EC50 (read off the curve)” value in assay [17] was around 20 ng/mL; in [5], around 10 ng/mL; in assay [8], around 10 ng/mL; in assay [22], around 10 ng/mL; in assay [9] it was around 10 ng/mL. Besides, the binding result in the assay with ICOS [1], with mouse PD-1-Fc [2], in the assay with CD28 [3] and in the assay with CTLA-4 [7] was “no binding (tested: 1000 ng/ml)” each time. Further, the Kd was 0.0154 nM in [4] and 0.00321 nM in assay [20]. The results for the “IC50 (read off the curve)” value in assay [18], in [21] and in [23] were around 5000 ng/mL, around 5000 ng/mL and around 2 ng/mL, respectively. Besides, in assay [19], the koff was found to be 2.77e-05 s⁻¹. The same molecule displayed a kon in assay [19] of 8.63e+06 M⁻¹ s⁻¹.

Source of the values: US20180282412A1 (ASIA BIOTECH PTE, published 2018).
